The text below walks through data of patent publication US20160060307A1 (KYUNGPOOK NATIONAL UNIVERSITY INDUSTRY ACADEMIC COOPERATION …, published 2016).

The Kd is a measure of binding affinity in units of concentration. Broadly, the koff is the rate constant with which the complex falls apart. Low values mean slow dissociation, high ones fast dissociation. As a reminder, the kon is a measure of how fast the partners come together. A higher kon goes with fast association.

Assay [1] has as its target T1, IL-4 receptor protein immobilised on carboxymethyl dextran chip (SPR) (Homo sapiens (Human), UniProt P24394 26-232).
T1 construct: Soluble protein coupled to the chip by EDC/NHS
T1 sequence: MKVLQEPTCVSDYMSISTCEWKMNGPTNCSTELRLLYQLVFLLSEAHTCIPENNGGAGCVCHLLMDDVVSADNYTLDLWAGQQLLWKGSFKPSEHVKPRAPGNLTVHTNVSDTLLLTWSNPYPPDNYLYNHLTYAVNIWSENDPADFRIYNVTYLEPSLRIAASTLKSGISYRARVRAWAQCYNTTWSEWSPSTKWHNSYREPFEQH
In words: SPR, IL-4 receptor immobilised. As to the method:
(§1) Here, the right channel was used as a reference channel. In the two channels, left channel and right channel, 1M ethanolamine (pH 8.5) solution was allowed to flow over the unreacted surface for 7 min for blocking, so as to reduce non-specific adsorption thereof. All test procedures were conducted at a temperature of 25° C. and the flow rate was 25 ul/min.
On the technique in general: Surface plasmon resonance follows binding to a sensor surface in real time, without labels.

In assay [2] the target is T1, IL-4 receptor protein immobilised on …. In words: SPR, IL-4 receptor immobilised, equilibrium fit. The procedure:
as §1
The buffer (20 mM Tris-HCl pH 8.0, 150 mM NaCl, 180 mM Histidine, 62.5 ug/ml BSA, 0.005% Tween 20) was used through filtering and degassing. […] For regeneration, 2 M NaCl was allowed to flow over for 1 h to wash the proteins remaining without dissociation.
In the binding graph, the RU value expressing the amount of bound protein was measured by subtracting the blank (buffer) value and reference channel (right channel) value, using Scrubber software. The KD value was obtained from the binding RU (Req) values measured at the respective concentrations using KaleidaGraph software.

B1: FTL-AP1_AP1: fusion polypeptide in which AP1S was fused to N-terminal of FTL_GG-AP1S (designed binder)
chain: MRKRLDRNGGGSGMSSQIRQNYSTDVEAAVNSLVNLYLQASYTYLSLGFYFDRDDVALEGVSHFFRELAEEKREGYERLLKMQNQRGGRALFQDIKKPAEDEWGKTPDAMKAAMALEKKLNQALLDLHALGSARTDPHLCDFLETHFLDEEVKLIKKMGDHLTNLHRGSRKRLDRNGGPEAGLGEYLFERLTLKHD
modifications: One monomer is given; it assembles into a 24-mer ferritin cage.
notes: Expressed from pET28a(+) via NdeI/XhoI and purified on Ni-NTA (His tag); also called ferritin having two inserted AP1 peptides; not shown: His tag from the pET28a(+) vector (Ni-NTA purification)
Regarding B1, in assay [1], the dissociation constant (Kd) came out at 0.0458 nM, the “fold enhancement of binding affinity against FTL-AP1” value was 10 times, the dissociation rate constant (koff) turned out to be 3.8e-05 s⁻¹ and the on-rate constant (kon) is 826000 M⁻¹ s⁻¹.

B2: FTL-GG-AP1L: ferritin having AP1L inserted in GG cassette (human ferritin light chain, fourth loop) (designed binder)
chain: MSSQIRQNYSTDVEAAVNSLVNLYLQASYTYLSLGFYFDRDDVALEGVSHFFRELAEEKREGYERLLKMQNQRGGRALFQDIKKPAEDEWGKTPDAMKAAMALEKKLNQALLDLHALGSARTDPHLCDFLETHFLDEEVKLIKKMGDHLTNLHRGSCRKRLDRNCGGPEAGLGEYLFERLTLKHD
modifications: One monomer is given; it assembles into a 24-mer ferritin cage.
notes: pET28a(+) expression with Ni-NTA purification (His tag); Cage-forming; also called 157cysAP1-PBNC; not shown: His tag from the pET28a(+) vector (Ni-NTA purification, anti-His probe)
B2 displayed a dissociation constant Kd in assay [2] of 25.9 nM.

B3: FTL-GP-AP1L: ferritin having AP1L inserted in GP cassette (human ferritin light chain, fourth loop) (designed binder)
chain: MSSQIRQNYSTDVEAAVNSLVNLYLQASYTYLSLGFYFDRDDVALEGVSHFFRELAEEKREGYERLLKMQNQRGGRALFQDIKKPAEDEWGKTPDAMKAAMALEKKLNQALLDLHALGSARTDPHLCDFLETHFLDEEVKLIKKMGDHLTNLHRLGSCRKRLDRNCGPEAGLGEYLFERLTLKHD
modifications: One monomer is given; it assembles into a 24-mer ferritin cage.
notes: pET28a(+) expression with Ni-NTA purification (His tag); Cage-forming; not shown: His tag from the pET28a(+) vector (Ni-NTA purification, anti-His probe)
B3 yielded a Kd in assay [2] of 9.9 nM.

B4: FTL-GG-AP1S: ferritin having AP1S inserted in GG cassette (human ferritin light chain, fourth loop) (designed binder)
chain: MSSQIRQNYSTDVEAAVNSLVNLYLQASYTYLSLGFYFDRDDVALEGVSHFFRELAEEKREGYERLLKMQNQRGGRALFQDIKKPAEDEWGKTPDAMKAAMALEKKLNQALLDLHALGSARTDPHLCDFLETHFLDEEVKLIKKMGDHLTNLHRGSRKRLDRNGGPEAGLGEYLFERLTLKHD
modifications: One monomer is given; it assembles into a 24-mer ferritin cage.
notes: It forms a ferritin-like cage (24-mer); also called FTL-AP1; not shown: His tag from the pET28a(+) vector (Ni-NTA purification, anti-His probe)
Consider B4, for which, in assay [1], the affinity, expressed as Kd, was 0.443 nM; the koff came out at 0.00125 s⁻¹; the on-rate constant (kon) amounted to 1.22e+06 M⁻¹ s⁻¹. This molecule also came in with a dissociation constant (Kd) in assay [2] of 1.19 nM.

B5: FTL-GP-AP1S: ferritin having AP1S inserted in GP cassette (human ferritin light chain, fourth loop) (designed binder)
chain: MSSQIRQNYSTDVEAAVNSLVNLYLQASYTYLSLGFYFDRDDVALEGVSHFFRELAEEKREGYERLLKMQNQRGGRALFQDIKKPAEDEWGKTPDAMKAAMALEKKLNQALLDLHALGSARTDPHLCDFLETHFLDEEVKLIKKMGDHLTNLHRLGSRKRLDRNGPEAGLGEYLFERLTLKHD
modifications: One monomer is given; it assembles into a 24-mer ferritin cage.
notes: as for B3
Regarding B5, the affinity in assay [2], expressed as Kd, was 4.29 nM.
